According to WO2009082624A2:

Molecular target: human IL-23 receptor (huIL-23R/huIL-12Rβ1) on Baf3/KZ134/huIL-23R/huIL-12Rβ1 Clone 6 cells (human) (UniProt P42701)
Test: cell-based or functional assay

Sequence of human IL-23 receptor (huIL-23R/huIL-12Rβ1) on Baf3/KZ134/huIL-23R/huIL-12Rβ1 Clone 6 cells (human) (chain, as listed by the source, chain 1 of 2, other chains not shown): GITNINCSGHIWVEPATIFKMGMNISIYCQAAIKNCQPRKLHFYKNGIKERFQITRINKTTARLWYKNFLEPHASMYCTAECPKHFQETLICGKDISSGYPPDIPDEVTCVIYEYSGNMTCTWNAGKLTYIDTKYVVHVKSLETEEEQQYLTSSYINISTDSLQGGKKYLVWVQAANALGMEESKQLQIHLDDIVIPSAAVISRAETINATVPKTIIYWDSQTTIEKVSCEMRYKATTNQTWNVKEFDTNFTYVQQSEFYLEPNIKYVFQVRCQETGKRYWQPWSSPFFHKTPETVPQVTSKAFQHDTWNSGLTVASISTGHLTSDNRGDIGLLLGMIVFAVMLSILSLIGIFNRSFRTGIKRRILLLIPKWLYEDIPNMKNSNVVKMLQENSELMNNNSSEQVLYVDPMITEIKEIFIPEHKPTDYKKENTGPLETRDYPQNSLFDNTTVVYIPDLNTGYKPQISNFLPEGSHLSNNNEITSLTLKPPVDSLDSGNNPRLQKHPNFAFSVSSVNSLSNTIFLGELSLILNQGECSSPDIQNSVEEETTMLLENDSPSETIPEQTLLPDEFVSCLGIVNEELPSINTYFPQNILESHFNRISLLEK

EC50, STAT3 phosphorylation in Baf3/KZ134/huIL-23R/huIL-12Rβ1 Clone 6 cells (ZymoGenetics IL-23): 20 pM
EC50, STAT3 phosphorylation in Baf3/KZ134/huIL-23R/huIL-12Rβ1 Clone 6 cells (eBioscience IL-23): 30 pM
Substance: human IL-23 (p19/p40 heterodimer), recombinant (from UniProt Q9NPF7 20-189; P29460 23-328) (ligand)
